Assay results reported in patent publication US20250332278A1, “MULTIVALENT DISPLAY OF APOAI PEPTIDE ON NANOPARTICLES AGAINST ATHEROSCLEROSIS” (The Regents of the University of California, priority 2022, published 2025).

Assays:
[1] = Dynamic light scattering of VLP/VNP conjugates; assay type: physicochemical; settings: 1 mg/mL in 0.01 M KP buffer
Description: Dynamic Light Scattering (DLS). The hydrodynamic diameter of VLPs/VNPs conjugates were probed using a Zetasizer Nano ZSP/Zen5600 instrument (Malvern Panalytical, Malvern, UK). Particle hydrodynamic diameter was calculated as the weighted mean of the intensity distribution and samples were analyzed at 1 mg/mL concentration in 0.01 M KP buffer.

SVEC cells [2] = test: Wound healing assay under oxidative stress; assay type: cell-based; settings: 0.5 μM, 8-h treatment, 4-h 50 μg/mL ox-LDL, versus control (serum-free medium)
Description: Wound healing assay. SVEC cell migration was investigated using a Radius 96-well kit (Cell Bio Labs). Applicant seeded 3×10^4 cells in 200 μL DMEM per well and allowed the cells to reach ˜80% confluence. After removing the Radius Gel, cells were allowed to migrate for 24 h in the presence of various treatments. Bright-field phase contrast images were acquired after 0, 12 and 24 h using an EVOS FL microscope fitted with a 10× objective (n=6 cells per group). Percentage wound closure was calculated by tracing the wound perimeter in ImageJ to calculate the area at t=12 or 24 h and dividing by the initial starting area at t=0 h.
Applicant therefore evaluated the effect of T-4FN on wound healing using SVEC cells.

[3] = tested on: J774 foam cells (ABCA1-mediated cholesterol efflux); test: J774 cholesterol efflux assay; assay type: cell-based
Description: J774 Cholesterol efflux assay. Cholesterol efflux was measured from J774 cells (ATCC) as previously described.^23 Briefly, J774 cells were seeded in 96-well plates at 1×10^5 cells/100 μL in DMEM (Corning) with 10% (v/v) fetal bovine serum (FBS) and 1% (w/v) penicillin-streptomycine (P/S). Cells were incubated until they reached ˜80% confluence. After two rinses with FBS-free DMEM containing 1% (w/v) P/S they were incubated for 48 h in 200 μL FBS-free DMEM containing 40 μg/mL acetylated low-density lipoprotein (AcLDL), 2 μg/mL Sandoz inhibitor, 1% (w/v) P/S, and 5% (v/v) human lipoprotein-deficient serum (LPDS) to produce foam cells. Excess lipids were removed by two rinses as above, and foam cells were equilibrated for 12 h in 200 μL FBS-free DMEM, 2 μg/mL Sandoz inhibitor, 0.3 mM CPT-cAMP, 1% (w/v) P/S, and 5% (v/v) human LPDS. After two further rinses, cholesterol efflux was initiated by adding different VLP/VNP or peptide treatments in FBS-free DMEM containing 1% (w/v) P/S and 5% (v/v) human LPDS and incubating for 15 h. The medium was then collected, centrifuged (1000×g, 10 min, 4° C.) and the cholesterol content of the supernatant was determined using the Amplex assay kit. Cells were washed three times with ice-cold PBS, lysed using 200 μL of Cytobuster lysis buffer, and the cholesterol content of the lysate was determined using the Amplex assay kit. Cholesterol efflux was calculated by dividing the amount of cholesterol in the medium by the total cholesterol content of the medium and lysate.

[4] = target: ATP-binding cassette transporter A1 (ABCA1) on J774 foam cells (UniProt P41233); test: cell-based or functional assay
Sequence of UniProt P41233 (P41233 whole entry): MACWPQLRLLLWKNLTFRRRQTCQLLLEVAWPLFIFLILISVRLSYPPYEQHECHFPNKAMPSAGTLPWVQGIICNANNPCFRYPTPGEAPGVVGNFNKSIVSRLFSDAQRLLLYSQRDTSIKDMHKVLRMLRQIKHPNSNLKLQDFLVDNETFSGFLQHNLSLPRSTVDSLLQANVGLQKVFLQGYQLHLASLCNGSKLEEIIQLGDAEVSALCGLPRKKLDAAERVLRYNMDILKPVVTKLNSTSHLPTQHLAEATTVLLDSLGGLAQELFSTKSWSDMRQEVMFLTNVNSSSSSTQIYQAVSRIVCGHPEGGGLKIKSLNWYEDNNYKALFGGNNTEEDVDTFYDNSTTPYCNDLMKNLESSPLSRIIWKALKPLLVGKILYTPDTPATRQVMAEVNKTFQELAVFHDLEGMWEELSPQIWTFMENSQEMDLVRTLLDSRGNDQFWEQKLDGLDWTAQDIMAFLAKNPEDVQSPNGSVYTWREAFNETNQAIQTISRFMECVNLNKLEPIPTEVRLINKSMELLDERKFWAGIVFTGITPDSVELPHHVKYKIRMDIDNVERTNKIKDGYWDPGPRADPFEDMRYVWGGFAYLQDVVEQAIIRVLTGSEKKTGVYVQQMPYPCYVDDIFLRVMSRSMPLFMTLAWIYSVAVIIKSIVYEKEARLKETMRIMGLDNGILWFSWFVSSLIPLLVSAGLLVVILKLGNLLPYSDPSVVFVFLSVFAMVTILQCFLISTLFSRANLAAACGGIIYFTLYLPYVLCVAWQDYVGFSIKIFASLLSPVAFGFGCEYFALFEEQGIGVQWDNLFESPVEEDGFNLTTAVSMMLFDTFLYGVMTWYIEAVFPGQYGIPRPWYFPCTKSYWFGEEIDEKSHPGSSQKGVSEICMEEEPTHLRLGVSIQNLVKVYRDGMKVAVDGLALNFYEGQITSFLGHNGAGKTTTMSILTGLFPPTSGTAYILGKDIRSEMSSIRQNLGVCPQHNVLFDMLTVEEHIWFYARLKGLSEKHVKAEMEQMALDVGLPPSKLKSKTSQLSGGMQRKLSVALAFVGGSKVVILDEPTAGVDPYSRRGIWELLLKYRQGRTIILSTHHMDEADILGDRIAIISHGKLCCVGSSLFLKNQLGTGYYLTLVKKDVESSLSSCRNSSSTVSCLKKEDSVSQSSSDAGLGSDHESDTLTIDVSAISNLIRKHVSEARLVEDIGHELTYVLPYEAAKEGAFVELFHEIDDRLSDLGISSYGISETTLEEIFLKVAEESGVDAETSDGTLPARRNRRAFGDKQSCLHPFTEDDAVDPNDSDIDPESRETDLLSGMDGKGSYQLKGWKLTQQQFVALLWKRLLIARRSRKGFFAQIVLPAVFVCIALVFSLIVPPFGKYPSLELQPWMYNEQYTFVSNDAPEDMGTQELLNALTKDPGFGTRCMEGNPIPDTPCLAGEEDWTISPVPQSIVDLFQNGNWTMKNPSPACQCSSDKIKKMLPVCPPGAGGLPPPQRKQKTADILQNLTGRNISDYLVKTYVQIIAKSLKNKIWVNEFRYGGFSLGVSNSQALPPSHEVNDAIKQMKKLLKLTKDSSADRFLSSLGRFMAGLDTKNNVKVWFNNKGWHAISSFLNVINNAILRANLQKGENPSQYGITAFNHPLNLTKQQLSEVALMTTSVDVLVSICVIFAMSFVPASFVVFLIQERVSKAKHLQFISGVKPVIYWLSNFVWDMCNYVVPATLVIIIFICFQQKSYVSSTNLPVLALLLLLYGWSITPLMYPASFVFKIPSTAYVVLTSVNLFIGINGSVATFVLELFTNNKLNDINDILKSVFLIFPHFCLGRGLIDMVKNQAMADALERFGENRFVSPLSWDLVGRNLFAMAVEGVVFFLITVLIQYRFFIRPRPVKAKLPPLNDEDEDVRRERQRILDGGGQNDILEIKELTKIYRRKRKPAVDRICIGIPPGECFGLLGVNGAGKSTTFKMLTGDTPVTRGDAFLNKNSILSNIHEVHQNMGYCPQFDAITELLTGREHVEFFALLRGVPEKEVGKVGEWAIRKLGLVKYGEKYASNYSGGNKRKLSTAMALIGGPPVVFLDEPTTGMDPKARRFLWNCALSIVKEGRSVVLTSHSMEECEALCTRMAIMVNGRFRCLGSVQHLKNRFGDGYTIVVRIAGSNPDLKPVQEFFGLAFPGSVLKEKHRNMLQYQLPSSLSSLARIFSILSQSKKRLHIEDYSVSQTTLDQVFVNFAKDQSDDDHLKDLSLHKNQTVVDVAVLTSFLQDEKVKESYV

SVEC cells [5] = test: ROS assay; assay type: cell-based; settings: 8 h treatment (0.5 μM particles or matched free peptide), then ox-LDL 4 h
Description: ROS assay. SVEC cells (ATCC) were seeded in four-compartment 35-mm CELLview glass-bottom dishes or 96-well plates at 6×10^4 cells/mL in 500 μL DMEM and were allowed to reach ˜80% confluence. The medium was then removed, and the cells were washed once with PBS before incubation with VLPs/VNPs for 8 h. Applicant then added 100 μg/mL ox-LDL for 4 h to induce oxidative stress and detected ROS using a CellROX Green Reagent Kit. Images were captured using a Nikon AiR confocal microscope with a 20×, 0.75 numerical aperture dry objective.

[6] = BODIPY-cholesterol binding assay (DLS and fluorescence); settings: for PDI after incubation with BODIPY-cholesterol / Zav after incubation with BODIPY-cholesterol: 20 uM BODIPY-cholesterol; for PDI after incubation with BODIPY-cholesterol: 2 h at 37° C.; for size change / cholesterol binding on incubation with BODIPY-cholesterol: relative to cholesterol-free controls
Description: BODIPY-Cholesterol Binding assay. A fluorescent cholesterol, BODIPY-cholesterol or 23-(dipyrrometheneboron difluoride)-24-norcholesterol was used to examine the HDL biomimics' ability to uptake cholesterol. VNP samples (500 μg) and equimolar HDL were incubated with 20 uM BODIPY-cholesterol for 2 hours at 37° C. on a shaker at 150 rpm in 0.5 mL of 10 mM KP/DMSO. After incubation, samples were purified by centrifuge using 100 kDa molecular-weight cutoff Amicon spin-filters to remove free, unbound cholesterol. Samples were analyzed for size on DLS (see above) and fluorescence before and after BODIPY-cholesterol binding using 480/508 nm excitation/emission parameters on a Tecan Plate Reader.
To investigate the ability of the TMV particles to bind cholesterol, Applicant mixed them with fluorescent BODIPY cholesterol for 2 h at 37° C. in 0.01M KP/DMSO (50:50).
The cholesterol-bound nanoparticles were separated from free cholesterol by centrifugation in spin filters with a 100-kDa cutoff. Samples without cholesterol were incubated as a negative control. Purified fractions were analyzed by DLS and fluorimetry.

J774 foam cells = test: TMV-ApoAI distribution during cholesterol efflux from J774 foam cells (confocal fluorescence microscopy); assay type: cell-based; settings: 0.5 μM 5FAM-labeled particles, 12 h
Description: TMV-ApoAI distribution during cholesterol efflux from J774 foam cells. Applicant seeded 1×10^5 J774 cells in 500 μL DMEM containing 10% (v/v) FBS and 1% (w/v) P/S into each zone of a four-compartment 35-mm CELLview glass-bottom dish, and allowed them to reach ˜80% confluence. Cells were rinsed twice with 500 μL FBS-free DMEM containing 1% (w/v) P/S and incubated for 48 h in 200 μL FBS-free DMEM containing 40 μg/mL of fluorescence-labeled acetylated low-density lipoprotein (Dil-AcLDL), 2 μg/mL Sandoz inhibitor, 1% (w/v) P/S, and 5% (v/v) human LPDS to produce labeled foam cells. After two rinses as above, foam cells were equilibrated for 12 h in 200 μL FBS-free DMEM containing 2 μg/mL Sandoz inhibitor, 0.3 mM CPT-cAMP, 1% (w/v) P/S, and 5% (v/v) human LPDS. After two further rinses, the cells were treated with 100 μL of 5FAM-labeled treatments and controls in FBS-free DMEM containing 1% (w/v) P/S and 5% (v/v) human LPDS. After 12 h, the cells were washed twice with 500 μL PBS and then fixed for 10 minutes at room temperature using a PBS solution containing 10% (w/v) PFA, 25% (w/v) glutaraldehyde. Cells were then twice washed with PBS and subsequently stained for 45 min with 300 μL of wheat-germ agglutinin AlexaFluor 647 (WGA-647) prepared in PBS and 5% (v/v) goat serum at a 1:500 dilution. Cells were then twice washed with PBS and then stained with 300 μL DAPI dye (5 μg/mL in PBS) for 20 min. Cells were washed twice with PBS and then imaged using a Nikon AiR confocal microscope with a 20×, 0.75 numerical aperture dry objective.
A fluorescently labeled T-4FN-5FAM was used to promote cholesterol efflux from fluorescently-labeled foam cells (FIG. 5A and FIG. 15B). Cholesterol and T-4FN-5FAM fluorescence was quantified using Nikon AR Elements Analysis software's 3D volume viewer tool and plotted in a bar graph (FIG. 5C and FIG. 5D).

Molecule: Qβ: 30-nm spherical virus-like particle with 180 identical coat protein units (SEQ ID NO: 6)
- PDI (DLS) [1]: 0.06
- Zav (hydrodynamic diameter, DLS) [1]: ~30.4 nm

Molecule: CSGGGDWFKAFYDKVAEKFKEAF [4FN]
- increase in wound closure after 24 h (SVEC cells [2]): 3.20 fold
- cholesterol efflux ([3]; upregulated ABCA1 conditions): most potent peptide

Molecule: TMV-4FN conjugate (TMV-Lys nanoparticle displaying ApoAI peptide 4FN through an SM(PEG)4 linker) (from UniProt P69687 2-157)
- cholesterol efflux from J774 foam cells under upregulated ABCA1 conditions (fold (against TMV-4FC)) [4]: 2.5

Molecule: CGVLESFKASFLSALEEWTKKLQ [23MJ]
- ROS production (mitigation) (SVEC cells [5]): did not mitigate ROS

B1: TMV (protein)
chain: MSYSITTPSQFVFLSSAWADPIELINLCTNALGNQFQTQQARTVVQRQFSEVWKPSPQVTVRFPDSDFKVYRYNAVLDPLVTALLGAFDTRNRIIEVENQANPTTAETLDATRRVDDATVAIRSAINNLIVELIRGTGSYNRSSFESSSGLVWTSGPK
- PDI after incubation with BODIPY-cholesterol [6]: 0.158
- Zav after incubation with BODIPY-cholesterol ([6]; 2 h at 37° C. in 0.01M KP/DMSO): 293.6 nm
- PDI before incubation with BODIPY-cholesterol ([6]; cholesterol-free control): 0.240
- size change / cholesterol binding on incubation with BODIPY-cholesterol [6]: inherent affinity for cholesterol
- Dil-LDL cholesterol fluorescence intensity (cell-associated) (J774 foam cells): promotes a baseline level of cholesterol efflux
- localization of particles on foam cells (J774 foam cells): mostly observed within the foam cells
- PDI (DLS) [1]: 0.230
- Zav (hydrodynamic diameter, DLS) [1]: ~203.1 nm
- increase in wound closure after 12 h (SVEC cells [2]): 2.58 fold
- increase in wound closure after 24 h (SVEC cells [2]): 3.15 fold

B2: T-4FN: TMV-Lys nanoparticle with 4FN ApoAI peptide conjugated to surface lysines via SM(PEG)4 maleimide-thiol chemistry (conjugate)
chain: SYSITTPSQFVFLSSAWADPIELINLCTNALGNQFQTQQARTVVQRQFSEVWKPSPQVTVRFPDSDFKVYRYNAVLDPLVTALLGAFDTRNRIIEVENQANPTTAETLDATRRVDDATVAIRSAINNLIVELIRGTGSYNRSSFESSSGLVWTSGPK
peptide: CSGGGDWFKAFYDKVAEKFKEAF
- PDI after incubation with BODIPY-cholesterol [6]: 0.145
- Zav after incubation with BODIPY-cholesterol ([6]; 2 h at 37° C. in 0.01M KP/DMSO): 708.8 nm
- change in fluorescence after BODIPY-cholesterol binding ([6]; 480/508 nm, signal after minus before binding): most intense signal
- PDI before incubation with BODIPY-cholesterol ([6]; cholesterol-free control): 0.193
- Zav before incubation with BODIPY-cholesterol ([6]; cholesterol-free control, 2 h at 37° C. in 0.01M KP/DMSO): 220.5 nm
- size change / cholesterol binding on incubation with BODIPY-cholesterol [6]: greatest change
- Dil-LDL cholesterol fluorescence intensity (cell-associated) (J774 foam cells): significantly lower
- fluorescence intensity of 5FAM (cell-associated) (J774 foam cells): significantly higher
- localization of particles on foam cells (J774 foam cells): extracellular, forming a dense layer on the plasma membrane
- PDI (DLS) [1]: 0.266
- Zav (hydrodynamic diameter, DLS) [1]: ~255.8 nm
- ROS production (mitigation) (SVEC cells [5]): reducing the ROS signal to near the level of the negative media control
- increase in wound closure after 12 h (SVEC cells [2]): 6.41 fold
- increase in wound closure after 24 h (SVEC cells [2]): 4.70 fold
- cholesterol efflux when ABCA1 receptor is not upregulated ([3]; homeostatic ABCA1 conditions, FIG. 4D): drastically decreases
- cholesterol efflux potency relative to TMV-4FC ([3]; upregulated ABCA1 conditions, FIGS. 4B-4C): ~2.5 fold

B3: Qβ-4FN: bacteriophage Qβ VLP conjugated to ApoAI peptide 4FN via SM(PEG)4 (conjugate)
chain: AKLETVTLGNIGKDGKQTLVLNPRGVNPTNGVASLSQAGAVPALEKRVTVSVSQPSRNRKNYKVQVKIQNPTACTANGSCDPSVTRQAYADVTFSFTQYSTDEERAFVRTELAALLASPLLIDAIDQLNPAY
peptide: CSGGGDWFKAFYDKVAEKFKEAF
- PDI (DLS) [1]: 0.177
- Zav (hydrodynamic diameter, DLS) [1]: ~40.5 nm
- cholesterol efflux ([3]; upregulated ABCA1 conditions): does not display significant cholesterol efflux
